The text below walks through data of publication PMC6625514.

This data set has as its target CD71 (transferrin receptor), used in ELISA (UniProt P02786 89-760). Description: ELISA. (In general: An ELISA detects its analyte on a solid surface through an enzyme-linked reagent.)

Chain of CD71 (transferrin receptor), used in ELISA (P02786 89-760): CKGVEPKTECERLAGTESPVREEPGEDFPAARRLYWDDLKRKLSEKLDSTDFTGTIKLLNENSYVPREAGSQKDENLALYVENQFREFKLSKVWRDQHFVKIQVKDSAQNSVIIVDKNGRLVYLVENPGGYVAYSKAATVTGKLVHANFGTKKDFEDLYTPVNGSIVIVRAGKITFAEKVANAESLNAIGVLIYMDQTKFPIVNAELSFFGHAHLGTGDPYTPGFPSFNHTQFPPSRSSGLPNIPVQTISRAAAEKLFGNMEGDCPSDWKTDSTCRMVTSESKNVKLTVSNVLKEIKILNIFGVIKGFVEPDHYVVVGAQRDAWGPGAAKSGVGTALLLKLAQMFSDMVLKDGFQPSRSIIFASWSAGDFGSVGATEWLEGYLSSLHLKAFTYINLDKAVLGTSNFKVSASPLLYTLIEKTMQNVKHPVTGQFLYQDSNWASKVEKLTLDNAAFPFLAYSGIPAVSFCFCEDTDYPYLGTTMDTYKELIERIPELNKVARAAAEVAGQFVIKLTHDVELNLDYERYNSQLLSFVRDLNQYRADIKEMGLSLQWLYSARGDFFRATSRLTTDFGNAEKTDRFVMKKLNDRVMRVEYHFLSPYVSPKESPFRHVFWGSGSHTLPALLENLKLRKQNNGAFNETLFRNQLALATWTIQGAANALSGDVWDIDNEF

B1: XQ-2d (ssDNA)
DNA: ACTCATAGGGTTAGGGGCTGCTGGCCAGATACTCAGATGGTAGGGTTACTATGAGC
One may read the Kd as the concentration at which binding is half-saturated. Lower therefore signals a tighter complex. B1: the Kd is 50.5 ± 27.3 nM.
